Tests used:
[1] = target: MMP-9 (commercial enzyme, Sigma) (UniProt P14780); assay: cell-based or functional assay
[2] = target: MMP-9 present in HT29 extracellular media (human) (UniProt P14780); assay: cell-based or functional assay
MMP-9 present in HT29 extracellular media (human), sequence (P14780 20-707): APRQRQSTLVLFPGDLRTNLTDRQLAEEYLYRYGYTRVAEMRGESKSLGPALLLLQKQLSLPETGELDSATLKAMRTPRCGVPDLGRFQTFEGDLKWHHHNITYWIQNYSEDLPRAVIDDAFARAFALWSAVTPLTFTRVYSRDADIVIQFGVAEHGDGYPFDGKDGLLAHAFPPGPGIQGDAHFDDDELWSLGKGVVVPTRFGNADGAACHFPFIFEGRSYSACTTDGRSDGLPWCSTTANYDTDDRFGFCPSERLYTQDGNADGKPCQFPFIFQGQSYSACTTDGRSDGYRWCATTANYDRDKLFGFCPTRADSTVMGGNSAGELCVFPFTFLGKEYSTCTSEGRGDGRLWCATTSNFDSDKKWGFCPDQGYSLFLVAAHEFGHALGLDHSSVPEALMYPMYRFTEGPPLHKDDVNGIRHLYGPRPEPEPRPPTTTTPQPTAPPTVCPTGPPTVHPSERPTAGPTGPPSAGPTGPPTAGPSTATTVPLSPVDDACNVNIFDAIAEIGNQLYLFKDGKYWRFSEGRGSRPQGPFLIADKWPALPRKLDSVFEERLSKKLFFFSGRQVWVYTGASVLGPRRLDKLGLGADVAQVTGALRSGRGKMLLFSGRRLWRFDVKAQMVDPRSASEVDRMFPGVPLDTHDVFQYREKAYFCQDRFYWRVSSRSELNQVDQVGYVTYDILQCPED

MMP-9 (commercial enzyme, Sigma), sequence (P14780 107-707 limits assumed): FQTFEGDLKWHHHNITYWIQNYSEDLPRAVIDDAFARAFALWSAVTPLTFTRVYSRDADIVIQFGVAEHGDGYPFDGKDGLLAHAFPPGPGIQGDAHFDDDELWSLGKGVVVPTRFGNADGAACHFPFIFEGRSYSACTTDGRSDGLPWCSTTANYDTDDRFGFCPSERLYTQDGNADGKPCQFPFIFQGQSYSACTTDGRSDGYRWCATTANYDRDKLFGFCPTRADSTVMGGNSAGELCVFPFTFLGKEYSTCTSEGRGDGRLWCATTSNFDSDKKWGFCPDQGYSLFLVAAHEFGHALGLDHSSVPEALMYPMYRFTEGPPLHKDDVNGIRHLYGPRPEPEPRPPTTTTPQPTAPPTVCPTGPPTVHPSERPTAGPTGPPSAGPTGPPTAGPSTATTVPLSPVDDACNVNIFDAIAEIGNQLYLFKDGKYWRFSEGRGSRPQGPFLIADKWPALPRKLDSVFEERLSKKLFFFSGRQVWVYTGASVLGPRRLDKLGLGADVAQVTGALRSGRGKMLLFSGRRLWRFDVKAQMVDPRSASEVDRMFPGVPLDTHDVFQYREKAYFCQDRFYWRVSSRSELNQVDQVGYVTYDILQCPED

gelatinolytic activity of MMP-9 on DQ-gelatin, deflamin at 100 µg/mL [1] | EC50, MMP inhibition (gelatinolytic activity of HT29 media, DQ-gelatin) [2] | MIC, MMP inhibition (gelatinolytic activity of HT29 media, DQ-gelatin) [2] | MMP-9 inhibitory activity, DQ gelatin assay [1] | Substance
> 90% | 10 µg/mL | < 5 µg/mL |  | deflamin isolated from Lupinus albus seeds (from UniProt Q53HY0 31-531; F5B8W8 73-152)
 |  |  | 100% | fraction 4 of the size exclusion chromatography (Superdex 75) of the L. albus total protein extract

— US20200113969A1
